± gives the uncertainty stated by the source.
Assay: protein stability index of a GFP-peptide fusion (yeast GPS) (PSI 1-4); higher = more stable; sorted into four equal gates, so the index is relative within each strain
Summary of the method: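 Plasmids in a pooled yeast library fused tiled 17-residue yeast protein peptides downstream of GFP and also expressed Cherry. Mid-log cultures grown without leucine were sorted into four equal gates by GFP/Cherry fluorescence ratio. Each gate's plasmids were PCR-amplified and Illumina-sequenced, and reads were matched to strains by barcodes. The protein stability index is derived by multiplying each gate's read frequency by its gate number and summing the results.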

| Sequence | protein stability index (doa10∆) | protein stability index (pdr5∆) | protein stability index (san1∆) | protein stability index (ubr1∆) |
| --- | --- | --- | --- | --- |
| AMKELAEKKIPLVIRRY [RPO26] | 1.28 ± 0.087 | 1.55 ± 0.092 | 1.7 ± 0.13 | 1.73 ± 0.11 |
| LSLGEAFKKIDAITVKD [COR1] | 3.39 ± 0.29 | – | – | 3.71 ± 0.19 |
| NKYQIKKAVKELYEVDV [RPL25] | 3.03 ± 0.077 | 3.15 ± 0.078 | 3.12 ± 0.042 | 3.21 ± 0.06 |
| IDKITDGLGNVVDFTSL [YMR129W/POM152] | 3.41 ± 0.11 | 3.53 ± 0.13 | 3.37 ± 0.061 | 3.45 ± 0.1 |
| FKTYRNETIIDNFSPHQ [SMC3] | 1.97 ± 0.17 | 1.42 ± 0.18 | 2.76 ± 0.21 | – |
| NDQDMFTIVSLVQLKKF [YML103C/NUP188] | 2.18 ± 0.12 | 2.84 ± 0.11 | 1.93 ± 0.17 | 2.04 ± 0.14 |
| NIFKAEMDSVSKSMKFS [CSN9] | 2.58 ± 0.065 | 2.58 ± 0.066 | 2.71 ± 0.051 | 2.85 ± 0.044 |
| TANANKPAFSFGATTND [YJL041W/NSP1] | 3.01 ± 0.07 | 2.74 ± 0.051 | 2.91 ± 0.047 | 2.88 ± 0.039 |
| RKYDLFQNLELETEQLS [SMC2] | 3.21 ± 0.073 | 3.1 ± 0.076 | 1.99 ± 0.17 | 2.17 ± 0.059 |
| ESMLHLSIWIKNYPEYF [IRR1] | 2.17 ± 0.046 | 2.06 ± 0.038 | 2.25 ± 0.061 | 2.2 ± 0.043 |
| KSKREEEAKSVLPAATK [ARP9] | 1.1 ± 0.092 | 1.37 ± 0.067 | 1.29 ± 0.11 | 1.21 ± 0.054 |
| LHKEQWQSGLKMYDYEE [RPN11] | 2.47 ± 0.081 | 2.8 ± 0.081 | 2.28 ± 0.096 | 2.39 ± 0.053 |
| LKSQMDTSKALLNVSVN [SKI6] | 3.22 ± 0.13 | 2.92 ± 0.12 | 3.23 ± 0.13 | 3.07 ± 0.053 |
| ATIIGIISTAIADSTHV [ECM29] | 1.74 ± 0.073 | 1.65 ± 0.061 | 1.95 ± 0.066 | 1.51 ± 0.04 |
| GDAAPAEEAAAEEEEES [RPP0] | – | 3.67 ± 0.16 | 3.29 ± 0.13 | 3.44 ± 0.12 |
| KVSKNSTSFKNPRRLEI [YMR153W/NUP53] | 2.85 ± 0.059 | 2.87 ± 0.057 | 2.88 ± 0.057 | 2.71 ± 0.032 |
| IGVLNNSSESDEEESND [RPN13] | 3.52 ± 0.2 | 2.4 ± 0.25 | – | 3.37 ± 0.095 |
| VNDVELAFKKNEMLLKR [MTW1] | 3.24 ± 0.19 | 3.46 ± 0.14 | 3.4 ± 0.14 | 3.11 ± 0.066 |
| TVHEMEEELKKLRDHEP [SMC4] | 3.54 ± 0.27 | 3.26 ± 0.22 | – | 3.62 ± 0.2 |
| IERYPSKVTKKHGAKKV [RPL27B] | 3.26 ± 0.074 | 3.49 ± 0.095 | 3.43 ± 0.061 | 3.31 ± 0.059 |
| VRLPTKVLKISTRKTPN [RPS20] | 1.83 ± 0.087 | 2.22 ± 0.089 | 1.7 ± 0.15 | 2.42 ± 0.084 |
| GQMAPIGTGAFDVMIDE [RPO21] | 2.29 ± 0.12 | 2.3 ± 0.13 | 2.37 ± 0.12 | 2.54 ± 0.057 |
| LLDEEAEQSFDQQSPWL [RPO21] | 3.27 ± 0.073 | 3.25 ± 0.065 | 3.24 ± 0.045 | 3.08 ± 0.048 |
| QSRLFINELVLENFKSY [SMC4] | 1.75 ± 0.053 | 2.34 ± 0.049 | 1.94 ± 0.078 | 2.27 ± 0.042 |
| RLNENKKIGCYMFANLE [CSN12] | 2.76 ± 0.17 | 3.14 ± 0.18 | 3.25 ± 0.084 | 3.27 ± 0.11 |
| DNVSKNALDKLRNNLNS [YCG1] | 3.23 ± 0.12 | 3.19 ± 0.13 | 2.24 ± 0.29 | 3.01 ± 0.17 |
| DRVQQDSEDEDSMKDTT [YML031W/NDC1] | 3.25 ± 0.14 | 3.22 ± 0.16 | 3.26 ± 0.091 | 3.25 ± 0.07 |

| Sequence | protein stability index (doa10∆) | protein stability index (pdr5∆) | protein stability index (san1∆) | protein stability index (ubr1∆) |
| --- | --- | --- | --- | --- |
| TQHKVTQYKAGKASLFA [RPL42A] | 3.29 ± 0.076 | 3.04 ± 0.062 | 2.99 ± 0.059 | 2.96 ± 0.068 |
| QYATVSKTHKTVSRAYG [RPL34A] | 2.05 ± 0.069 | 2.31 ± 0.055 | 2.41 ± 0.065 | 2.34 ± 0.06 |
| SPSPILLTSAGCKNGSF [NUT1] | 2.01 ± 0.1 | 2.06 ± 0.052 | 1.61 ± 0.24 | 2.41 ± 0.073 |
| QILQGICKNCSAILLSE [RPO31] | 2.17 ± 0.071 | 2.23 ± 0.061 | 2.26 ± 0.13 | 2.43 ± 0.069 |
| TLRPRQYATVSKTHKTV [RPL34A] | 2 ± 0.16 | 2.12 ± 0.093 | – | – |
| WAADSVSSRVRGYTCQF [FAS1] | 2.56 ± 0.29 | 2.62 ± 0.15 | 2.71 ± 0.11 | 2.69 ± 0.13 |
| KINTRGAEDPKVLINDQ [SWI1] | 3.02 ± 0.2 | 3.34 ± 0.13 | 3.26 ± 0.14 | 3.11 ± 0.054 |
| DWIRFVSTKTNEYRLAF [RPL22A] | 2.03 ± 0.039 | 2.17 ± 0.045 | 2.75 ± 0.064 | 2.62 ± 0.042 |
| AASLIMPFLDNQVNFKN [PRE7] | – | 2.7 ± 0.081 | 1.31 ± 0.17 | 1.39 ± 0.093 |
| NFLDNCLFENDLQRLKP [ITC1] | 2.61 ± 0.051 | 3.07 ± 0.063 | 2.94 ± 0.048 | 3.06 ± 0.034 |
| STQPSFAWSKPSTGSNL [YGR119C/NUP57] | 2.98 ± 0.054 | 3.04 ± 0.055 | 3.01 ± 0.048 | 2.98 ± 0.038 |
| GVIDDSFDVAISTACPR [SMC4] | 2.59 ± 0.077 | 3.09 ± 0.046 | 2.45 ± 0.058 | 2.7 ± 0.049 |
| SMVLFFVCLSCSHIFTS [RPB9] | 1.55 ± 0.073 | 1.4 ± 0.081 | 1.43 ± 0.14 | 1.67 ± 0.095 |
| NPSITRLEEESSWQIYS [RRP4] | – | 3.07 ± 0.21 | – | 2.07 ± 0.097 |
| LADILKANISLETLEHN [RPO21] | 2.96 ± 0.093 | 2.91 ± 0.1 | 3.11 ± 0.11 | 2.61 ± 0.11 |
| RLAKSTENEIPNLIEKM [BRR2] | 1.62 ± 0.08 | 1.5 ± 0.052 | 1.75 ± 0.087 | 1.68 ± 0.058 |
| PLPSHALTVQEVLNRVA [YDL116W/NUP84] | 2.29 ± 0.039 | 2.37 ± 0.042 | 2.37 ± 0.053 | 2.33 ± 0.027 |
| SLPHFPKNSKTPQSKGF [RPO31] | 2.94 ± 0.23 | 3.08 ± 0.22 | 2.67 ± 0.18 | 2.98 ± 0.21 |
| DFDGDEMNLHVPQTEEA [RPO31] | 3.03 ± 0.071 | 3.31 ± 0.068 | 2.99 ± 0.063 | 3.18 ± 0.051 |
| NETNDKKRNPSKQNGSK [PRP28] | 3.21 ± 0.096 | 3.15 ± 0.066 | 3.02 ± 0.051 | 3.23 ± 0.039 |
| LYDLRASYAKIEIKISD [SNU114] | 2.34 ± 0.11 | 2.72 ± 0.084 | 2.22 ± 0.12 | 2.13 ± 0.17 |
| TLLKKANRDDVKGRENE [RPC82] | – | 3.5 ± 0.23 | – | 3.15 ± 0.17 |
| LISKPAKKNNFIEDLAP [UBP6] | 2.54 ± 0.084 | 2.73 ± 0.066 | 2.73 ± 0.069 | 2.7 ± 0.062 |
| KIQFILEQMELSILKGD [RPN5] | – | 2.57 ± 0.23 | 2.35 ± 0.29 | 2.65 ± 0.19 |
| GEFETKIAGIEGHLAEI [SRB2] | – | – | – | 3.1 ± 0.13 |
| HIRKASSKKSKRLDKVG [LRP1] | 3.21 ± 0.087 | 2.78 ± 0.1 | 2.97 ± 0.061 | 2.95 ± 0.066 |

Source: the supplement of paper PMC9732359
